The values that follow come from the supplement of paper PMC5998384.

Data set [1] relates to HeLa Kyoto. Nature of the data set: thermal stability score vs G1/S (z-score of summed log2 fold changes over temperatures); higher = more thermally stable than in G1/S.
For data set [2], the system named is HeLa Kyoto. Put plainly: solubility in G1/S (NP-40 vs SDS abundance) (log2 ratio); higher = more soluble. The settings on record: cell cycle stage: G1/S.
The subject of data set [3] is HeLa Kyoto. Put plainly: melting temperature (median over replicates), in situ; higher = more thermally stable.
The test system of data set [4] is HeLa Kyoto. Nature of the data set: solubility change mitosis vs G1/S (difference of NP-40 vs SDS log2 ratios) (log2 ratio difference); higher = more soluble in mitosis.
[5] abbreviates: cell cycle stage: early G1 (4.5 h after nocodazole release).
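Wherever melting temperature (median over replicates), in situ is given: HeLa Kyoto cells synchronized by double thymidine or nocodazole block, proteins quantified by TMT10plex mass spectrometry, three independent biological replicates.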
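Wherever solubility change mitosis vs G1/S (difference of NP-40 vs SDS log2 ratios) is given: synchronized HeLa Kyoto cells (double thymidine block for G1/S, nocodazole release for mitosis), protein amounts in NP-40 versus SDS lysates quantified by mass spectrometry, three biological replicates.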
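Wherever solubility in G1/S (NP-40 vs SDS abundance) is given: HeLa Kyoto cells arrested at G1/S by double thymidine block, proteins quantified by TMT10plex mass spectrometry in mild NP-40 versus SDS extracts, three biological replicates.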
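Wherever thermal stability score vs G1/S (z-score of summed log2 fold changes over temperatures) is given: synchronized HeLa Kyoto cells, proteins quantified by TMT10plex mass spectrometry, three biological replicates, mitosis taken 0.5 h after nocodazole release, G1/S directly after double thymidine block.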

Take “MSAPSEEEEYARLVMEAQPEWLRAEVKRLSHELAETTREKIQAAEYGLAVLEEKHQLKLQFEELEVDYEAIRSEMEQLKEAFGQAHTNHKKVAADGESREESLIQESASKEQYYVRKVLELQTELKQLRNVLTNTQSENERLASVAQELKEINQNVEIQRGRLRDDIKEYKFREARLLQDYSELEEENISLQKQVSVLRQNQVEFEGLKHEIKRLEEETEYLNSQLEDAIRLKEISERQLEEALETLKTEREQKNSLRKELSHYMSINDSFYTSHLHVSLDGLKFSDDAAEPNNDAEALVNGFEHGGLAKLPLDNKTSTPKKEGLAPPSPSLVSDLLSELNISEIQKLKQQLMQMEREKAGLLATLQDTQKQLEHTRGSLSEQQEKVTRLTENLSALRRLQASKERQTALDNEKDRDSHEDGDYYEVDINGPEILACKYHVAVAEAGELREQLKALRSTHEAREAQHAEEKGRYEAEGQALTEKVSLLEKASRQDRELLARLEKELKKVSDVAGETQGSLSVAQDELVTFSEELANLYHHVCMCNNETPNRVMLDYYREGQGGAGRTSPGGRTSPEARGRRSPILLPKGLLAPEAGRADGGTGDSSPSPGSSLPSPLSDPRREPMNIYNLIAIIRDQIKHLQAAVDRTTELSRQRIASQELGPAVDKDKEALMEEILKLKSLLSTKREQITTLRTVLKANKQTAEVALANLKSKYENEKAMVTETMMKLRNELKALKEDAATFSSLRAMFATRCDEYITQLDEMQRQLAAAEDEKKTLNSLLRMAIQQKLALTQRLELLELDHEQTRRGRAKAAPKTKPATPSL [BICD2]”: the thermal stability score in the data set with HeLa Kyoto [1] (setting [5]) was -0.115; in the data set with HeLa Kyoto [1] (cell cycle stage: mitosis), 0.199. Moreover, the “solubility in G1/S (log2)” value in the data set with HeLa Kyoto [2] came to 0.628. Moreover, the melting temperature with HeLa Kyoto [3] (cell cycle stage: G1/S) worked out at 49.7 °C; in the data set on HeLa Kyoto [3] (cell cycle stage: mitosis) it was 49.1 °C. Also, in the data set on HeLa Kyoto [4], the “solubility change mitosis (log2)” value is 0.0849.
In the case of “MSASVVSVISRFLEEYLSSTPQRLKLLDAYLLYILLTGALQFGYCLLVGTFPFNSFLSGFISCVGSFILAVCLRIQINPQNKADFQGISPERAFADFLFASTILHLVVMNFVG [DAD1]”, the figures for the thermal stability score in the data set on HeLa Kyoto [1] (setting [5]) and in the data set with HeLa Kyoto [1] (cell cycle stage: mitosis) were 0.505 and -0.552, respectively. The “solubility in G1/S (log2)” value in the data set on HeLa Kyoto [2] was -0.0329. For the same sequence, the values for the melting temperature in the data set on HeLa Kyoto [3] (cell cycle stage: G1/S) and in the data set with HeLa Kyoto [3] (cell cycle stage: mitosis) were 54.5 °C and 54.2 °C, respectively. For the same sequence, the “solubility change mitosis (log2)” value with HeLa Kyoto [4] was -0.257.
“MSCAGAAAAPRLWRLRPGARRSLSAYGRRTSVRFRSSGMTLDNISRAAVDRIIRVDHAGEYGANRIYAGQMAVLGRTSVGPVIQKMWDQEKDHLKKFNELMVTFRVRPTVLMPLWNVLGFALGAGTALLGKEGAMACTVAVEESIAHHYNNQIRTLMEEDPEKYEELLQLIKKFRDEELEHHDIGLDHDAELAPAYAVLKSIIQAGCRVAIYLSERL [COQ7]”: the results for the thermal stability score with HeLa Kyoto [1] (setting [5]) and with HeLa Kyoto [1] (cell cycle stage: mitosis) were -2.12 and -0.639, respectively. Besides, the “solubility in G1/S (log2)” value with HeLa Kyoto [2] is -0.0496. The results for the melting temperature in the data set on HeLa Kyoto [3] (cell cycle stage: G1/S) and in the data set on HeLa Kyoto [3] (cell cycle stage: mitosis) were 56.1 °C and 53.4 °C, respectively. For the same sequence, the “solubility change mitosis (log2)” value with HeLa Kyoto [4] was -0.0504.
Turning to “MSCPVPACCALLLVLGLCRARPRNALLLLADDGGFESGAYNNSAIATPHLDALARRSLLFRNAFTSVSSCSPSRASLLTGLPQHQNGMYGLHQDVHHFNSFDKVRSLPLLLSQAGVRTGIIGKKHVGPETVYPFDFAYTEENGSVLQVGRNITRIKLLVRKFLQTQDDRPFFLYVAFHDPHRCGHSQPQYGTFCEKFGNGESGMGRIPDWTPQAYDPLDVLVPYFVPNTPAARADLAAQYTTVGRMDQGVGLVLQELRDAGVLNDTLVIFTSDNGIPFPSGRTNLYWPGTAEPLLVSSPEHPKRWGQVSEAYVSLLDLTPTILDWFSIPYPSYAIFGSKTIHLTGRSLLPALEAEPLWATVFGSQSHHEVTMSYPMRSVQHRHFRLVHNLNFKMPFPIDQDFYVSPTFQDLLNRTTAGQPTGWYKDLRHYYYRARWELYDRSRDPHETQNLATDPRFAQLLEMLRDQLAKWQWETHDPWVCAPDGVLEEKLSPQCQPLHNEL [SGSH]”, the values for the thermal stability score in the data set with HeLa Kyoto [1] (setting [5]) and in the data set with HeLa Kyoto [1] (cell cycle stage: mitosis) were -1.28 and -1.81, respectively. Further, the “solubility in G1/S (log2)” value in the data set with HeLa Kyoto [2] was 0.401. Moreover, the melting temperature with HeLa Kyoto [3] (cell cycle stage: G1/S) came to 53.5 °C; in the data set on HeLa Kyoto [3] (cell cycle stage: mitosis), 58 °C. Moreover, in the data set with HeLa Kyoto [4], the “solubility change mitosis (log2)” value was -0.261.
As to “MSDFDSNPFADPDLNNPFKDPSVTQVTRNVPPGLDEYNPFSDSRTPPPGGVKMPNVPNTQPAIMKPTEEHPAYTQIAKEHALAQAELLKRQEELERKAAELDRREREMQNLSQHGRKNNWPPLPSNFPVGPCFYQDFSVDIPVEFQKTVKLMYYLWMFHAVTLFLNIFGCLAWFCVDSARAVDFGLSILWFLLFTPCSFVCWYRPLYGAFRSDSSFRFFVFFFVYICQFAVHVLQAAGFHNWGNCGWISSLTGLNQNIPVGIMMIIIAALFTASAVISLVMFKKVHGLYRTTGASFEKAQQEFATGVMSNKTVQTAAANAASTAASSAAQNAFKGNQI [SCAMP1]”, the thermal stability score in the data set with HeLa Kyoto [1] (setting [5]) is -0.608; in the data set on HeLa Kyoto [1] (cell cycle stage: mitosis), -0.121. For the same sequence, the “solubility in G1/S (log2)” value in the data set with HeLa Kyoto [2] turned out to be 0.0609. Further, the melting temperature was found to be 55.8 °C in the data set on HeLa Kyoto [3] (cell cycle stage: G1/S) and 56 °C in the data set on HeLa Kyoto [3] (cell cycle stage: mitosis). Moreover, the “solubility change mitosis (log2)” value in the data set on HeLa Kyoto [4] was -0.114.
